These results are taken from patent US9028810B2, “Composition for inducing migration of neural stem cells containing periostin as effective ingredient” (Ajou University Industry—Academic Cooperations Foundatin, priority 2010, dated 2015).

For one assay, the system named is neural stem cells. Kind of assay: In vitro migration assay using ERK pathway and CDK5 pathway inhibitors. In kind it is cell-based, human. Conditions: 12 hours. The source says: It has been reported that, in the development of the central nervous system, neural stem cells migrate from the subventricular zone to cortex through radial glial cells using the ERK (extracellular signal regulated kinase) and CDK5 signaling pathways, and in the neuronal migration, DCX participated in nucleus translocation, neucleokinesis (Niethammer et al., 2000).
Cultured neural stem cells were detached with 0.05% trypsin, washed with DMEM medium and re-suspended in DMEM medium, after which 5×10^4 cells were inoculated into an upper chamber (Costar Transwell) in 200 μl of 10% FBS-containing DMEM medium.
After 12 hours, in order to determine the number of cells that migrated from the upper chamber through a 8-μm porous polycarbonate membrane to the lower portion of the membrane in response to the stimulation of the lower chamber, the migrated neural stem cells were stained with hematoxylin & eosin and counted.

The subject of assay [1] is DCX and ERK in neural stem cells. Kind of assay: Transwell membrane immunostaining of ERK and DCX in migrated cells. Conditions: periostin 10 μg/ml, 12 hours; for location of DCX in migrated cells: with or without inhibitor; for cell migration: VEGF 10 ng/ml. In kind it is cell-based, human. As to the method:
To analyze the ERK and DCX affection of migrated cells, transwell membrane immunostaining was performed using ERK and DCX antibodies (Cell signaling tech., Danver, Mass.).
Cultured neural stem cells were detached with 0.05% trypsin, washed with DMEM medium and re-suspended in DMEM medium, after which 5×10^4 neural stem cells were inoculated into an upper chamber (Costar Transwell) in 200 μl of 10% FBS-containing DMEM medium. After one day, a lower chamber was treated with each of VEGF (10 ng/ml), periostin (10 μg/ml) and periostin+inhibitor. After 12 hours, the changes in locations of DCX and ERK in the cells that migrated from the upper chamber through the 8-μm porous polycarbonate membrane to the lower portion of the membrane in response to the stimulation of the lower chamber were examined.
Next, the membrane was washed with PBS, blocked twice with a solution of 5% goat serum and 0.5% triton X-100 in PBS for 30 minutes, and then washed with a solution of 0.5% BSA (bovine serum albumin) in PBS for 15 minutes. After this, the membrane was incubated with a 1:500 dilution of goat polyclonal human DCX antibody and a 1:1000 dilution of rabbit polyclonal human ERK antibody at 4° C. overnight, and then washed twice with PBS for 15 minutes each time. Next, the membrane was incubated with biotin-conjugated anti-rabbit secondary antibody at room temperature for 1 hour and washed trice with PBS, after which […] was detected by staining the membrane using an avidin-biotin kit (Vector, Calif.) and a diaminbenzidin peroxidase (DAB) kit (Vector, Calif.).

Assay [2] has as its system HB1.F3 human neural stem cell line. Kind of assay: Boyden chamber migration assay, HB1.F3 neural stem cells. The class given is cell-based. Conditions: for increase in ability to induce the migration of neural stem cells compared to not treated: Boyden chamber. As to the method:
(§1) In order to examine the effect of periostin on the migration of neural stem cells, a Boyden chamber assay was performed using two human neural stem cell lines (HB1.F3 and HB1.F5), thereby determining whether human neural stem cells migrated in response to periostin in vitro. For controls, VEGF (vascular endothelial growth factor) was used as a positive control, and FBS-DMEM medium was used as a negative control.
(§2) Specifically, cultured neural stem cells were detached with 0.05% trypsin, washed with DMEM medium, and then re-suspended in DMEM medium, after which 5×10^4 cells seeded into an upper chambers (Costar Transwell) in 200 μl of 10% FBS-containing DMEM medium. After one day, a lower chamber was treated with various concentrations of periostin or VEGF. The periostin was used at concentrations of 5, 10 and 20 μg/ml, and the VEGF was used at concentrations of 5, 10 and 20 ng/ml. 10% FBS-DMEM medium was used as a negative control. After 12 hours, in order to determine the number of cells that migrated from the upper chamber through a 8-μm porous polycarbonate membrane to the lower portion of the membrane in response to the stimulation of the lower chamber, the migrated neural stem cells were stained with hematoxylin and then counted.
(§3) After one day, a lower chamber was treated with 10 μg/ml of periostin, and after 4 hours, 8 hours, 12 hours and 24 hours, the migrated cells were stained with H&E (hematoxylin & eosin), counted and photographed (Olympus BX51, Japan).

In assay [3] the test system is HB1.F5 human neural stem cell line. In words: Boyden chamber migration assay, HB1.F5 neural stem cells. In kind it is cell-based. As to the method: as §1
as §2, with “The periostin was used at concentrations of 5, 10 and 20 μg/ml, and the VEGF was used at concentrations of 5, 10 and 20 ng/ml. 10% FBS-DMEM medium was used as a negative control.” left out
as §3

In assay [4] the test system is PI3K/AKT signaling pathway (PI3K-AKT-mTOR-CDK5-Nudel1, PAK1). Kind of assay: Western blotting of FAK / PI3K-AKT signaling pathway after periostin treatment. In kind it is cell-based, human. As to the method:
The FAK signaling pathway is linked to kinases as its downstream pathways and transduces signals. With respect to cell migration, the PI3K/AKT signaling pathway (PI3K-AKT-mTOR-CDK5-Nudel1, PAK1) is frequently used as the downstream pathway of FAK, and thus the following experiment was performed in order to determine the kinase activation pathway.
First, neural stem cells treated with periostin were washed with PBS and lysed with PMSF and a protease inhibitor in RIPA buffer (0.5% sodiumdeoxycholate, 0.1% sodiumdodecyl sulfate, 1% NP-40, PBS). Protein concentration was determined by a Bio-Rad-DC protein assay (Bio-Rad, Hercules, Calif., US). The samples were adjusted to the same protein concentration, after 30 μg of each protein was separated on SDS-PAGE gel. Then, protein samples were transferred to an immobilon-P membrane (Millipore Corp., MA, US). For protein detection, the membrane was incubated in TBS-T 5% skim milk at room temperature for 30 minutes and washed three times with TBS-T for 15 minutes each time. Then, the membrane was incubated with primary antibodies of FAK, pFAK, PAK and pPAK (1:1000 dilution; Epitomics) in 5% BSA-TBS-T overnight at 4° C. Then, the membrane was washed three times with TBS-T for 15 minutes each time. Then, the membrane was incubated with secondary anti-rabbit antibody (1:2000 dilution; Zymed, Calif., USA) at room temperature for 1 hour. The membrane was washed three times with TBS-T, after which the antibody binding protein was added to an ECL Western blotting detection solution (Amersham Pharmacia Biotechnology, buckinghamahire, UK) for 1 minute and exposed to Kodak X-ray firm for detection. The Western blotting analysis was performed at various time points between 0 and 12 hours after treatment with periostin.
(In western blotting, separated proteins are transferred to a membrane and probed.)

Where [5] appears, read: neural stem cells, Western blotting 0-12 hours.

`COc1cccc(-c2cc(=O)c3ccccc3o2)c1N` [PD98059]: in the assay with neural stem cells (20 nM inhibitor with periostin in lower chamber), the “inhibition of migration of neural stem cells induced by periostin” value worked out at 40%. Also, in the assay on neural stem cells (20 nM inhibitor), the “migration of neural stem cells in control group not treated with periostin” value is listed as “inhibited”.

For `CC[C@H](CO)Nc1nc(NCc2ccccc2)c2ncn(C(C)C)c2n1` [roscovitine, reference compound], the “location of DCX in migrated cells” value in assay [1] is “the concentration of DCX around the nuclei was inhibited”.

With “vascular endothelial growth factor [VEGF, reference compound]”, the cell migration entry in assay [1] is reported as “induced cell migration”. In addition, in assay [2] (HB1.F3 cells, 12 hours), the “increase in ability to induce the migration of neural stem cells compared to not treated” value was 25%. Besides, in assay [2] (tested 5, 10 and 20 ng/ml, 12 hours), the “concentration at which ability of VEGF to induce migration was the highest” value is 5 ng/mL.

B1: periostin (protein)
chain: NNHYDKILAHSRIRGRDQGPNVCALQQILGTKKKYFSTCKNWYKKSICGQKTTVLYECCPGYMRMEGMKGCPAVLPIDHVYGTLGIVGATTTQRYSDASKLREEIEGKGSFTYFAPSNEAWDNLDSDIRRGLESNVNVELLNALHSHMINKRMLTKDLKNGMIIPSMYNNLGLFINHYPNGVVTVNCARIIHGNQIATNGVVHVIDRVLTQIGTSIQDFIEAEDDLSSFRAAAITSDILEALGRDGHFTLFAPTNEAFEKLPRGVLERIMGDKVASEALMKYHILNTLQCSESIMGGAVFETLEGNTIEIGCDGDSITVNGIKMVNKKDIVTNNGVIHLIDQVLIPDSAKQVIELAGKQQTTFTDLVAQLGLASALRPDGEYTLLAPVNNAFSDDTLSMDQRLLKLILQNHILKVKVGLNELYNGQILETIGGKQLRVFVYRTAVCIENSCMEKGSKQGRNGAIHIFREIIKPAEKSLHEKLKQDKRFSTFLSLLEAADLKELLTQPGDWTLFVPTNDAFKGMTSEEKEILIRDKNALQNIILYHLTPGVFIGKGFEPGVTNILKTTQGSKIFLKEVNDTLLVNELKSKESDIMTTNGVIHVVDKLLYPADTPVGNDQLLEILNKLIKYIQIKFVRGSTFKEIPVTVYKPIIKKYTKIIDGVPVEITEKETREERIITGPEIKYTRISTGGGETEETLKKLLQEEVTKVTKFIEGGDGHLFEDEEIKRLLQGDTPVRKLQANKKVQGSRRRLREGRSQ
notes: induces migration of neural stem cells
With B1, in assay [1], the cell migration entry is reported as “induced cell migration” and the “location of DCX in migrated cells” value was “DCX was concentrated around the nuclei”. Also, in assay [3] (HB1.F5, 10 μg/ml periostin, 4, 8, 12 and 24 hours), the “migration of neural stem cells over time” value is “increased with time”. Further, the “migration of neural stem cells upon treatment” value in assay [3] (HB1.F5 cells, 12 hours) was “increased upon treatment with periostin”. Moreover, the “time for which Nudel1 activation was maintained” value in assay [4] (activated when PAK1 activation decreased) was found to be 12 h. Besides, in assay [4] (setting [5]), the “time after treatment at which AKT and mTOR were activated” value stood at 1 h; the “time after treatment at which PAK1 started to be activated” value is 1 h; the “time after treatment from which FAK was highly activated” value was 30 min; the “time up to which CDK5 activation was maintained” value was 12 h. Also, the “time up to which PAK1 activation was maintained” value in assay [4] (setting [5]) came out at 6 h. Also, the “migration of neural stem cells over time” value in assay [2] (HB1.F3, 10 μg/ml periostin, 4, 8, 12 and 24 hours) is “increased with time”. Further, the “increase in induction of migration relative to that by VEGF” value in assay [2] (HB1.F3 cells) is on record as “about 4 times”. For the same molecule, the “increase in ability to induce the migration of neural stem cells compared to not treated” value in assay [2] (HB1.F3 cells, 12 hours) is reported as “about 100%”. For the same molecule, the “concentration at which ability of periostin to induce migration was the highest” value in assay [2] (tested 5, 10 and 20 μg/ml, 12 hours) worked out at 10 µg/mL.
